{
  "source": "patent US20050002917A1",
  "about": "(UNIVERSITY OF MASSACHUSETTS, published 2005)",
  "target": "T1, 35S-methionine-luciferase (in vitro translated from the Promega luciferase control plasmid) (UniProt P08659 1-550 = luciferase, 35S-methionine label)",
  "T1 construct": "Control protein in the pull-down; also called control protein luciferase",
  "T1 sequence (P08659 whole entry, the tested form may be a part)": "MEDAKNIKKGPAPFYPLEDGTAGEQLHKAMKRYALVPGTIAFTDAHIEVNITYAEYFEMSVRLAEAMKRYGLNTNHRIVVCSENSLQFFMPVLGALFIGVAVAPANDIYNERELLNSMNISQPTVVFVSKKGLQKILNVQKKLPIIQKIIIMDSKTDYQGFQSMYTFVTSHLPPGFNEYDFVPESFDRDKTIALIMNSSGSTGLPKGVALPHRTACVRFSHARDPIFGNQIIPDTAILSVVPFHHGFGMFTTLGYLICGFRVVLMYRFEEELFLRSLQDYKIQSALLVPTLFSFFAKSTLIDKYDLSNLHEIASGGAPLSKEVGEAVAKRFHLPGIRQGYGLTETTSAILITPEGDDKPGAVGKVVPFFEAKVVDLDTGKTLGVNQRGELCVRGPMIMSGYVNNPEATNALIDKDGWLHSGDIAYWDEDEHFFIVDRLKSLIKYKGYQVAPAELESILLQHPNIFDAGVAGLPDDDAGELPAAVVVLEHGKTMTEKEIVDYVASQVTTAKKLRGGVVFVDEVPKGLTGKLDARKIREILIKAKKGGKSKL",
  "assay": "GST pull-down of 35S-labelled protein on glutathione-Sepharose 4B beads, SDS/PAGE and autoradiography",
  "method": "The CaM kinase II domain of mCASK-C cDNA was amplified by PCR and cloned in frame into SmaI of pGEX-2T and transformed into E. coli BL21 cells. […] For pull-down assays, radiolabeled Acheron and luciferase was produced from pET-25b(+)-Acheron and luciferase controlled plasmid (Promega) by using in vitro TNT Quick Coupled Transcription/Translation System (Promega) with ³⁵S-methionine as the sole source of methionine, following the manufacture's instructions. 5 μl of ³⁵S-methionine-Acheron and ³⁵S-methionine-luciferase were incubated with equal amount of GST or GST-mCASK-C (CaM kinase II domain) bound to glutathione-Sepharose 4B beads, respectively, under constant rocking for 45 minutes in 2 ml of NETN binding buffer. ³⁵S-methionine-luciferase and GST were used as the controls in the binding assays. The Sepharose beads were pelleted and washed extensively with the binding buffer and were analyzed by SDS/PAGE and autoradiography.\nTo further confirm the physical interaction between Acheron and mCASK-C, an in vitro protein binding assay was performed. […] The beads were pelleted and washed extensively and the bound protein complex was resolved by SDS/PAGE and detected by autoradiography.",
  "data": [
    {"binder": "GST-mCASK-C (CaM kinase II domain from amino acid 1 to 339) (other, Expressed in E. coli BL21 and immobilised on glutathione-Sepharose 4B beads; not shown: glutathione S-transferase from vector pGEX-2T) MADDDVLFEDVYELCEVIGKGPFSVVRRCINRETGQQFAVKIVDVAKFTSSPGLSTEDLKREASICHMLKHPHIVELLETYSSDGMLYMVFEFMDGADLCFEIVKRADAGFVYSEAVASHYMRQILEALRYCHDNNIIHRDVKPHCVLLASKENSAPVKLGGFGVAIQLGESGLVAGGRVGTPHFMAPEVVKREPYGKPVDVWGCGVILFILLSGCLPFYGTKERLFEGIIKGKYKMNPRQWSHISESAKDLVRRMLMLDPAERITVYEALNHPWLKERDRYAYKIHLPETVEQLRKFNARRKLKGAVLAAVSSHKFNSFYGDPPEELPDFSEDPTSSG", "values": [
      {"measurement": "binding result", "value": "no binding"}
    ]}
  ]
}
